{
  "source": "IntAct's records for PubMed 15143060",
  "parents": {"B1": {"name": "ADP-ribosylation factor-binding protein GGA1 (Homo sapiens), Q9UJY5 (parent)", "chain": "MEPAMEPETLEARINRATNPLNKELDWASINGFCEQLNEDFEGPPLATRLLAHKIQSPQEWEAIQALTVLETCMKSCGKRFHDEVGKFRFLNELIKVVSPKYLGSRTSEKVKNKILELLYSWTVGLPEEVKIAEAYQMLKKQGIVKSDPKLPDDTTFPLPPPRPKNVIFEDEEKSKMLARLLKSSHPEDLRAANKLIKEMVQEDQKRMEKISKRVNAIEEVNNNVKLLTEMVMSHSQGGAAAGSSEDLMKELYQRCERMRPTLFRLASDTEDNDEALAEILQANDNLTQVINLYKQLVRGEEVNGDATAGSIPGSTSALLDLSGLDLPPAGTTYPAMPTRPGEQASPEQPSASVSLLDDELMSLGLSDPTPPSGPSLDGTGWNSFQSSDATEPPAPALAQAPSMESRPPAQTSLPASSGLDDLDLLGKTLLQQSLPPESQQVRWEKQQPTPRLTLRDLQNKSSSCSSPSSSATSLLHTVSPEPPRPPQQPVPTELSLASITVPLESIKPSNILPVTVYDQHGFRILFHFARDPLPGRSDVLVVVVSMLSTAPQPIRNIVFQSAVPKVMKVKLQPPSGTELPAFNPIVHPSAITQVLLLANPQKEKVRLRYKLTFTMGDQTYNEMGDVDQFPPPETWGSL"}},
  "data": [
    {"variants_of": "B1", "conditions": "with arf1_human ARF1, P84077", "values": [
      {"variant": "L182A;N194A;I197A", "effect of a mutation on the interaction": "decreasing interaction"}
    ]}
  ]
}
